From paper PMC5645147, “Binding of a C-type lectin’s coiled-coil domain to the Domeless receptor directly activates the JAK/STAT pathway in the shrimp immune response to bacterial infection”

Molecular target: T1, native STAT, LPS-challenged shrimp (Marsupenaeus japonicus (kuruma shrimp), UniProt D0VYJ1 1-801)
T1 sequence: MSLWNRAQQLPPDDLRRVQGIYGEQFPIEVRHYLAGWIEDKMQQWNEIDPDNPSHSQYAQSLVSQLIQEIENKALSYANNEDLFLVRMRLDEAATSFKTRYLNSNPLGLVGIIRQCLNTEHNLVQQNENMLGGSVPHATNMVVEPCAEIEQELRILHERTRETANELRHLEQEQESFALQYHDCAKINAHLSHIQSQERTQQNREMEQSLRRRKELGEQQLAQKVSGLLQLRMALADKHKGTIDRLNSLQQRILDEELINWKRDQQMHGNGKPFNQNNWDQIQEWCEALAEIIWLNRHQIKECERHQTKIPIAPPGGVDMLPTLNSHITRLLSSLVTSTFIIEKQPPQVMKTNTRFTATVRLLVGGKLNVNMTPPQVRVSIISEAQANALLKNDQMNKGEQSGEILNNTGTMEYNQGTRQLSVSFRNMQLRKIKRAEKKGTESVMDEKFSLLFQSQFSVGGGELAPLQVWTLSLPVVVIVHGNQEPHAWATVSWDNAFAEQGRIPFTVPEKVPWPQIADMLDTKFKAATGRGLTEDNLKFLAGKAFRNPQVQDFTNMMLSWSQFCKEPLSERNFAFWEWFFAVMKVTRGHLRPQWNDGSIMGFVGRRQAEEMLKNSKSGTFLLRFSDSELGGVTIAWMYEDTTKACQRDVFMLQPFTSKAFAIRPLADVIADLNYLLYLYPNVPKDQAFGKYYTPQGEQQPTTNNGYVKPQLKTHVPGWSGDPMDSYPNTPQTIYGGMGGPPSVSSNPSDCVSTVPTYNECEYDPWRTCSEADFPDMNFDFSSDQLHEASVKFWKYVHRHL
Test: EMSA; STAT from LPS-injected shrimp; binding increased; 2 ug protein, 20 fmol Dig-probe, Beyotime EMSA binding buffer (from 5x; composition and pH not stated), 20 min with probe, room temperature (stated for competition); 6% PAGE, 0.5x TBE
Conditions: chain copies: 2, blunt

B1: CruI-1 promoter STAT probe (dsDNA)
DNA 1: GCGTAAGGTTTTCTTGGAATA
DNA 2: TATTCCAAGAAAACCTTACGC
- binding result: binds
